This passage reports Kd results from PMC7486399 (2020).

The target in experiment [1] is SARS-CoV-2 spike glycoprotein receptor-binding domain (SARS-CoV-2, UniProt P0DTC2 319-541). The experiment is described as follows: BLI.
Experiment [2] deals with SARS-CoV-2 spike glycoprotein S1 subunit (SARS-CoV-2, UniProt P0DTC2 14-685). Put plainly: BLI.

B1: angiotensin-converting enzyme 2 (ACE2) protein, purified (receptor)
chain: QSTIEEQAKTFLDKFNHEAEDLFYQSSLASWNYNTNITEENVQNMNNAGEKWSAFLKEQSTLAQMYPLQEIQNLTVKLQLQALQQNGSSVLSEDKSKRLNTILNTMSTIYSTGKVCNPNNPQECLLLDPGLNEIMEKSLDYNERLWAWEGWRSEVGKQLRPLYEEYVVLKNEMARANHYKDYGDYWRGNYEVNGVDGYDYNRDQLIEDVERTFEEIKPLYEHLHAYVRAKLMNAYPSYISPTGCLPAHLLGDMWGRFWTNLYSLTVPFGQKPNIDVTDAMVNQAWNAQRIFKEAEKFFVSVGLPNMTQGFWENSMLTDPGNVQKVVCHPTAWDLGKGDFRIIMCTKVTMDDFLTAHHEMGHIQYDMAYAAQPFLLRNGANEGFHEAVGEIMSLSAATPKHLKSIGLLSPDFQEDNETEINFLLKQALTIVGTLPFTYMLEKWRWMVFKGEIPKDQWMKKWWEMKREIVGVVEPVPHDETYCDPASLFHVSNDYSFIRYYTRTLYQFQFQEALCQAAKHEGPLHKCDISNSTEAGQKLLNMLKLGKSEPWTLALENVVGAKNMNVRPLLNYFEPLFTWLKDQNKNSFVGWSTDWSPYADQSIKVRISLKSALGDKAYEWNDNEMYLFRSSVAYAMRTYFLEIKHQTILFGEEDVRVADLKPRISFNFYVTAPKNVSDIIPRTEVEEAIRISRSRINDAFRLNDNSLEFLGIQTTLAPPYQSPVT
Regarding B1, the dissociation constant (Kd) in experiment [1] is 149 nM; in experiment [2] it was 146 nM.
